Results on 16 molecules are retold here after patent US12649778.

Residue numbers refer to the chain shown, from its start. Where two headings read alike, the source gives them in different places. Some results are limits rather than exact numbers.

As usually defined, the Kd is the free concentration of one partner at which half of the binding sites on the other are occupied at equilibrium, for simple one-to-one binding. The low end stands for higher affinity, the high end for lower affinity. What is called koff is the rate constant with which the complex falls apart. Higher therefore signals a short-lived complex. By kon is commonly meant a measure of how fast the partners come together. A high value points to fast association.

In assay [1] the target is Peptide 1593 (…) (Mycobacterium tuberculosis). The assay can be described thus: SPR (Biacore 8K), antibody amine-coupled to CM5, peptide as analyte, 25 C. A general note: In SPR one partner is held on a chip, and binding of the other changes the refractive index at the surface.
The target is the same in assay [2].
Assay [3] shares this target. The experiment in a line: SPR (Biacore 8K), antibody immobilised, peptide as analyte.
The target is the same in assay [4]. The assay can be described thus: SPR (Biacore), IgG amine-coupled, peptide as analyte.
The target of assay [5] is Peptide 2004 (…) (Mycobacterium tuberculosis).
In assay [6] the target is Peptide 1593 (…) (Mycobacterium tuberculosis). The assay can be described thus: indirect ELISA, recombinant antibody on 1 ug/ml coated peptide. Background: ELISA stands for enzyme-linked immunosorbent assay.
For assay [7] the target is unchanged. The source holds these as a separate data set.
For assay [8] the target is unchanged. The assay can be described thus: indirect ELISA, supernatant on 1 ug/ml coated peptide.
For assay [9], the target named is monoclonal antibody 65D3-1.

B1: monoclonal antibody 65D3-1 (antibody, V domains shown)
VH: QSLEESGGRLVTPGGSLTLTCTVSGFSLSTHDISWVRQAPGKGLEWIGVIARRGSTYYASWAKGRFTISKTSTTVDLKITSPTIEDTATYFCAREEFDFWGQGTLVTVSS
VL: AVLTQTASPVSAAVGGTVTISCQSSQSVYNNKELSWFQQKPGQPPKLLISYASTLASGVPSRFKGSGSGTQFTLTISDLECDDAATYYCLGGYASTIDMWAFGGGTEVVVK
In assay [1], B1 registered a Kd of 1.72 nM. Besides, in assay [2], the koff came out at 0.000238 s⁻¹ and the kon stood at 138000 M⁻¹ s⁻¹. In [3], this molecule gave a dissociation constant Kd of 1.72 nM.

B2: 65D3 wild-type recombinant IgG (VH + VL) (antibody, V domains shown)
VH: B1 VH
VL: B1 VL
As to B2, in assay [4], the dissociation constant (Kd) was found to be 0.755 nM, the koff came to 0.00017 s⁻¹ and the kon amounted to 225000 M⁻¹ s⁻¹.

B3: Antibody 10G3-1 (antibody, V domains shown)
VH: QSVEESGGRLVTPGTPLTLTCTASGFSLSDDAMSWVRQAPGKGLEWIGIIGRRGKTWYANWAKGRFTISKTSTTVDLKITSPTTEDTATYFCARGYVSSDWNIYGMDLWGPGTLVTVSA
VL: QVLTQTPSPVSAAVGGTVTINCQASQSVYNNKNLAWYQQKSGQPPKLLIYEASKLASGVPSRFKGSGSGTQFTLTISGVQCDDAATYYCQGEFSCSSADCFTFGGGTEVVVK
B3 yielded a rank by relative ELISA signal across the dilution series (1 = highest) in assay [5] of 5.

B4: Antibody 6D10-1 (antibody, V domains shown)
VH: QSVEESGGRLVTPGTPLTLTCTVSGFSLSDVTMSWVRQAPGKGLEWIGIIGRRGRIWYANWAKGRFTISKTSPTVDLKIISPTSDDTATYFCARGAVSSDWNMYGMDLWGPGTLVTVSS
VL: QVLTQTPSSVSAPVGGTVTINCQSSQSVYNNENLAWYQQKLGQPPKLLIYGASTLASGVSSRFEGSGSGTQFALTISGVQCDDAATYYCQGEFDCSSADCFAFGGGTEVVVK
For B4, in [5], the rank by relative ELISA signal across the dilution series (1 = highest) came out at 2.

B5: Antibody 5B7-1 (antibody, V domains shown)
VH: QSVEESGGRLVTPGTPLTLTCTVSGFSLSDVTISWVRQAPGKGLKWTGIIGRRGRIRYADWAKGRFTISKTSTTVDLKITSPTTDDTATYFCARAYVSSDWNIYGMDLWGPGTLVTVSS
VL: B4 VL with P7A, S9P, S24A, E32K, G51E, T54K, A102V
In assay [5], B5 had a rank by relative ELISA signal across the dilution series (1 = highest) of 3.

B6: Antibody 55H8-1 (antibody, V domains shown)
VH: B3 VH with V3M, A23V, D31H, I50V, K55R, W57Y, N60S, T84I, A119S
VL: B3 VL with S41P, K54T, P60S, S94D, T102A
Take B6: the rank by relative ELISA signal across the dilution series (1 = highest) in assay [5] was 4.

B7: Antibody 3E9-1 (antibody, V domains shown)
VH: QSLEESGGRLVTPGGSLTLTCTVSGIDLSSNAMGWVRQAPGEGLEWIGSIYASGNTYYASWAKGRFAISKTSTTVDLKMTSLTAADTATYFCARLFNIWGPGTLVTVSS
VL: ADIVLTQTPASVSSVVGGTVTINCQASQSVFDNKNLSWFQQKPGQPPKQLIYGASTLDSGVPSRFKGSGSGTQFTLTISDMQCDDAATYYCGGRDSGNIYDFGGGTEVVVK
In assay [5], B7 yielded a rank by relative ELISA signal across the dilution series (1 = highest) of 7.

B8: Antibody 76H12-1 (antibody, V domains shown)
VH: B7 VH with S2E, E4K, T20S, V23A, S30G, N31S, E42Q, A52V, K70R, F96L
VL: B7 VL with A10S, S11P, S14I, V15A, F31Y, S37A, D58A, D80G, G97D
Take B8: the rank by relative ELISA signal across the dilution series (1 = highest) in assay [5] is 8.

B9: Antibody 21F10-1 (antibody, V domains shown)
VH: QSVEESGGRLVTPGTPLTLTCTVSGIDLSSNAVGWVRQAPGEGLEWIGSIYSSGNSYYASWAKGRFAISRTSTTVDLKMTRLTAADTATYFCARLFNIWGPGTLVTVS
VL: B7 VL with T21A, F31Y, P46T, D58A, D80G, M81V, S96D, G97D
Molecule B9 registered a rank by relative ELISA signal across the dilution series (1 = highest) in [5] of 11.

B10: Antibody 4G6-1 (antibody, V domains shown)
VH: B7 VH with G15T, S16P, E45Q, A52S, K63R, K70R
VL: B7 VL with L5V, S14A, V15D, F31Y, S37A, L57V, D58A, M81V, S96N, G97D
With B10, in assay [5], the rank by relative ELISA signal across the dilution series (1 = highest) was 10.

B11: Antibody 67G8-2 (antibody, V domains shown)
VH: QSVEESGGRLVTPGTPLTLTCTVSGFSLGNYDGHWVRQTPEKGLEWIGVIATIGDTYYASWAKGRFSISKTSATVELRITSPTTEDTATYFCVRGDSRTSNEIFNLWGQGTLVTVSS
VL: AVLTQTPSPVSAAVGGTLTINCQSTRSVHNNICLSWYQQKPGQPPKLLIYSASTLASGVPSRFKGSGSGTQFTLAINDVQCGDAATYYCAGCFPSKSDMYGFGGGTEVVVK
In the case of B11, in assay [6], the OD450 at 1.95 ng/ml (1:512,000) was 0.876 OD450, the OD450 at 3.90 ng/ml (1:256,000) worked out at 1.21 OD450, the OD450 at 7.81 ng/ml (1:128,000) is 1.66 OD450 and the OD450 at 15.62 ng/ml (1:64,000) was 2.14 OD450. In assay [6], the OD450 at 31.25 ng/ml (1:32,000) was 2.45 OD450, the OD450 at 62.50 ng/ml (1:16,000) was found to be 2.61 OD450, the OD450 at 125.00 ng/ml (1:8,000) amounted to 2.76 OD450 and the OD450 at 250.00 ng/ml (1:4,000) came out at 2.8 OD450. Also, in assay [6], the OD450 at 500.00 ng/ml (1:2,000) was found to be 2.83 OD450, the OD450 at 1,000.00 ng/ml (1:1,000) worked out at 2.85 OD450 and the Titer was > 512000 dilution 1:x. In [7], this molecule gave an equilibrium dissociation constant (Kd) of 0.101 nM, a koff of 3.02e-05 s⁻¹ and a kon of 299000 M⁻¹ s⁻¹. In assay [8], this molecule yielded an OD450, supernatant 1:90 of 3.1 OD450; an OD450, supernatant 1:270 of 2.33 OD450; an OD450, supernatant 1:810 of 1.31 OD450; an OD450, supernatant 1:2,430 of 0.616 OD450. In assay [8], the OD450, supernatant undiluted was 3.22 OD450 and the Titer was > 2430 dilution 1:x.

B12: Antibody 135A6-1 (antibody, V domains shown)
VH: QSVEESGGRLVTPGTPLTLTCTVSGFSLGNYDISWVRQAPGKGLEWIGVIATVGDTYYASWAKGRFTISKTSATVDLKITSPTTEDTATYFCVRGDSPSTNEIFGLWGQGTLVTVSS
VL: B11 VL with T25S, S27T, H29Y, P41L, S51G, A56T, K64R, A75T, K96T
With B12, in [8], the OD450, supernatant 1:90 came out at 3.46 OD450; the OD450, supernatant 1:270 was 3.22 OD450; the OD450, supernatant 1:810 came out at 2.68 OD450; the OD450, supernatant 1:2,430 is 1.69 OD450. In addition, in assay [8], the OD450, supernatant undiluted was determined as 3.27 OD450 and the Titer was > 2430 dilution 1:x.

B13: Peptide 1593 (…) (peptide)
peptide: TDAATLAQEAGNFERC
modifications: not checked
Regarding B13, in assay [9], the IC50 (read off the curve) stood at 2 nM.

B14: Antibody 91B4-1 (antibody, V domains shown)
VH: QSLEESGGRLVSPGGSLTLTCTVSGIDLSRFGVSWVRQAPGKGLEWTGYIHTDGNVYYASWAKGRFTISKTSTTVDLKMTSLTTEDTATYFCARGGYAADLWGQAALVTVSS
VL: DPMLTQTPSSVSAAVGGTVTISCQSSESVYKNYLAWYQQKLGQPPKLLIGATSTLVSGVPSRFKGSGSRTQFSLTISDLECDDAATYYCVGGYTGKNVFGGGTEVVVK
In assay [8], B14 displayed an OD450, supernatant 1:90 of 3.04 OD450; an OD450, supernatant 1:270 of 2.27 OD450; an OD450, supernatant 1:810 of 1.3 OD450; an OD450, supernatant 1:2,430 of 0.618 OD450. In assay [8], the OD450, supernatant undiluted stood at 3.12 OD450 and the Titer is > 2430 dilution 1:x.

B15: Antibody 101G10-2 (antibody, V domains shown)
VH: QSVEESGGRLVTPGTPLTLTCTVSGFSLSSYDMTWVRQAPGKGLEYIGVISYGGSAYYASWAKGRFTISKTSTTVDLKITSPTTEDTATYFCARGDSDGSSELFNLWGQGTLVTVSS
VL: AVLTQTPSPVSAPVGGTVSINCQSSKSVYNNNCLSWYQQKPGQPPNLLIYGASTLASGVPSRFKGSGSGTQFTLTINDVQCDDAATYYCAGCFASTNDMYGFGGGSEVVVK
In assay [8], B15 displayed an OD450, supernatant 1:90 of 3.22 OD450; an OD450, supernatant 1:270 of 3.21 OD450; an OD450, supernatant 1:810 of 3.1 OD450; an OD450, supernatant 1:2,430 of 2.41 OD450. Further, in assay [8], the OD450, supernatant undiluted was found to be 3.23 OD450 and the Titer was > 2430 dilution 1:x.

B16: Antibody 125D9-1 (antibody, V domains shown)
VH: B15 VH with S2P, I50V, S51A, S55A, A56T
VL: B15 VL with P13A, S19T, P41Q, N46K, G51Q, L55P, N97S, S106T, E107G
For the molecule B16, in [8], the OD450, supernatant 1:90 is 3.37 OD450; the OD450, supernatant 1:270 was found to be 3.31 OD450; the OD450, supernatant 1:810 was 3.27 OD450; the OD450, supernatant 1:2,430 was 2.85 OD450. Also, in [8], the OD450, supernatant undiluted came to 3.2 OD450 and the Titer is > 2430 dilution 1:x.
